Residue numbers refer to the chain shown, from its start.

First the molecules themselves.
T1: GST-GLI1^S116,S130 (GST-GLI1_(68-232), only S116 and S130 intact), mock treated (human, UniProt P08151-1 68-232, S70A | S86A | S102A | S146A | S201A)
T1 sequence: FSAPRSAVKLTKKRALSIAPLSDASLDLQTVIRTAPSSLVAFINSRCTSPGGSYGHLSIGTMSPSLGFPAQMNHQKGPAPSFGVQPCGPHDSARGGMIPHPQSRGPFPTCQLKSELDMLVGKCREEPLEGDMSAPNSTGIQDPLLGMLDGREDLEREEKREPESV

T2: GST-GLI1^S102,S116 (GST-GLI1_(68-232), only S102 and S116 intact), mock treated (human, UniProt P08151-1 68-232, S70A | S86A | S130A | S146A | S201A)
T2 sequence: T1 sequence with A35S, S63A

T3: GST-GLI1^S130, phosphorylated by ERK2 (human, UniProt P08151-1 68-232, S70A | S86A | S102A | S116A | S146A | S201A, phosphorylated by ERK2; only intact SP site S130)
T3 construct: only the SP site S130 intact; also called ERK2-treated GLI1^S130; source: bacteria, purified (glutathione-Sepharose); then phosphorylated with purified active ERK2
T3 sequence (looked up): T1 sequence with S49A

T4: GST-GLI1^S116, phosphorylated by ERK2 (human, UniProt P08151-1 68-232, S70A | S86A | S102A | S130A | S146A | S201A, phosphorylated by ERK2; only intact SP site S116)
T4 construct: only the SP site S116 intact; also called ERK2-treated GLI1^S116; source: bacteria, purified (glutathione-Sepharose); then phosphorylated with purified active ERK2
T4 sequence (looked up): T1 sequence with S63A

T5: GST-GLI1^S130, phosphorylated by ERK2 (human, UniProt P08151-1 68-232, S70A | S86A | S102A | S116A | S146A | S201A, phosphorylated by ERK2; only intact SP site S130)
T5 sequence: T1 sequence with S49A

T6: GST-GLI1^S116, phosphorylated by ERK2 (human, UniProt P08151-1 68-232, S70A | S86A | S102A | S130A | S146A | S201A, phosphorylated by ERK2; only intact SP site S116)
T6 sequence: T1 sequence with S63A

T7: GST-GLI1^S116,S130, phosphorylated by ERK2 (human, UniProt P08151-1 68-232, S70A | S86A | S102A | S146A | S201A, phosphorylated by ERK2; intact SP sites S116, S130)
T7 sequence: T1 sequence

T8: full-length human SUFU protein, 35S-radiolabeled (human, UniProt Q9UMX1-1 1-484, [35S]-methionine label)
T8 chain: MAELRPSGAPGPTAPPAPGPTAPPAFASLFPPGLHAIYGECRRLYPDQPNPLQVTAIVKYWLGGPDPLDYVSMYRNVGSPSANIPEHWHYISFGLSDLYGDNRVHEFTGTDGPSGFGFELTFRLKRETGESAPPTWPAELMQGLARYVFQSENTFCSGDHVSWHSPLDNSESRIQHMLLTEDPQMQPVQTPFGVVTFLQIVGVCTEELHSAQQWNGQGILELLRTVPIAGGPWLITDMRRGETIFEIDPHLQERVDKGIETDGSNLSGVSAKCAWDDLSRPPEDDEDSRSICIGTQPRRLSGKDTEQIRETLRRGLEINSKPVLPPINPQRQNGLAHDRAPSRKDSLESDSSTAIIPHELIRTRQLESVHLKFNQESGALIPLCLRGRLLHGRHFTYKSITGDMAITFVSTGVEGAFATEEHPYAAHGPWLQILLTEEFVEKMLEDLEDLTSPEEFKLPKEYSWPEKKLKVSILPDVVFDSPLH

B1: full-length human SUFU protein, 35S-radiolabeled (natural protein, UniProt Q9UMX1-1 1-484, looked up)
chain: T8 chain
modifications: [35S]-methionine label
notes: human SUFU, full length, residues 1-484, from plasmid pGEM4Z-SUFU; also called 35S-SUFU; radiolabeled SUFU; source: in vitro transcription and translation (SP6, Promega), partially purified by ammonium sulfate precipitation
B2: GST-GLI1_(68-232), wild type, phosphorylated by ERK2 (domain or fragment, human, UniProt P08151-1 68-232, looked up)
chain: T1 sequence with A3S, A19S, A35S, A79S, A134S
modifications: phosphorylated by ERK2 to ∼3 mol phosphate per mole; most efficient sites Ser116 and Ser130, followed by Ser102 and Ser201
notes: vector pGEX-LB; also called ERK2-phosphorylated GLI1; WT + ERK2; source: bacteria, purified (glutathione-Sepharose); then phosphorylated with purified active ERK2 (2 h, 30°C)

In assay [1] the target is T1, GST-GLI1^S116,S130 (GST-GLI1_(68-232), …). As to the kind of experiment: mock treated.
Assay [2] has as its target T2, GST-GLI1^S102,S116 (GST-GLI1_(68-232), …). Briefly: mock treated.
The target in assay [3] is the three “two sites only”-intact mutants, ERK2-phosphorylated. As to the kind of experiment: pull-down; purified GST-GLI1_(68-232) variants (mock treated or ERK2 phosphorylated), 0 or 1.25-80 nM, on glutathione-Sepharose beads; ∼1 pmol 35S-SUFU in 200 μl; 15 min at 30°C, then 1 h at room temperature; Binding Buffer (20 mM Tris-HCl pH 7.5, 125 mM KOAc, 0.5 mM EDTA, 5 mM DTT, 0.1% Tween20, 12.5% glycerol) + 1 mg/ml BSA; bound SUFU quantified by SDS-PAGE and Phosphorimager; Kd from binding isotherms.

Assay [4] has as its target phosphorylated single and double-phosphosite mutants. The description is as above.
Assay [5] addresses B2. The assay is described as above. As to conditions: one partner purified.
For assay [6], the target named is T3, GST-GLI1^S130, phosphorylated by ERK2. The description is as above. As to conditions: one partner purified.
Assay [7] deals with T4, GST-GLI1^S116, phosphorylated by ERK2. Described as above. The settings on record: one partner purified.
Assay [8] has as its target T5, GST-GLI1^S130, phosphorylated by ERK2. As to the kind of experiment: GLI1 phosphorylated by ERK2.
Assay [9] deals with T6, GST-GLI1^S116, phosphorylated by ERK2. As to the kind of experiment: GLI1 phosphorylated by ERK2.
Assay [10] deals with T7, GST-GLI1^S116,S130, phosphorylated by …. As to the kind of experiment: GLI1 phosphorylated by ERK2.
In assay [11] the target is T8, full-length human SUFU protein, …. Briefly: GLI1 phosphorylated by ERK2.
The target of assay [12] is B1. As to the kind of experiment: pull-down; purified GST-GLI1_(68-232) variants (mock treated or ERK2 phosphorylated), 0 or 1.25-80 nM, on glutathione-Sepharose beads; ∼1 pmol 35S-SUFU in 200 μl; 15 min at 30°C, then 1 h at room temperature; Binding Buffer (20 mM Tris-HCl pH 7.5, 125 mM KOAc, 0.5 mM EDTA, 5 mM DTT, 0.1% Tween20, 12.5% glycerol) + 1 mg/ml BSA; bound SUFU quantified by SDS-PAGE and Phosphorimager; Kd from binding isotherms. As to conditions: one partner purified.

In the case of B1, the dissociation constant (Kd) is 11 nM in assay [1]; 6 nM in assay [2]; 53 nM in assay [4]; 16 nM in assay [8]; 36 nM in assay [9]; 53 nM in assay [10]. In addition, the fold increase of Kd after ERK2-mediated phosphorylation in assay [3] was 4.8 to 8.3 fold. Also, the “fold increase of Kd against unphosphorylated GLI1” value in assay [5] was approximately 30 fold. In assay [5], the “fold weakening of Kd against unphosphorylated GLI1” value was more than 30 fold. Also, the “fold reduction in affinity after ERK2 treatment” value in assay [6] was 1.3 fold. The “fold increase of Kd upon phosphorylation” value in [7] amounted to 2.6 fold.
For B2, the dissociation constant Kd in assay [11] came out at 118 nM; in [12], 93 nM.

Usually Kd stands for a measure of binding affinity in units of concentration.

Source of the values: PMC9279676, “ERK2 MAP kinase regulates SUFU binding by multisite phosphorylation of GLI1” (Life Science Alliance, 2022).
